# Experimental data from US20240197877A1, “BINDING PROTEINS RECOGNIZING HA-2 ANTIGEN AND USES […]” (published 2024).
# B1: HA2-MJ14-DP317 MGTM Sequence (also known as “TCR-101” and “MJ14-DP317”) (TCR, V domains shown)
# V domain 1: QTVTQSQPEMSVQEAETVTLSCTYDTSESDYYLFWYKQPPSRQMILVIRQEAYKQQNATENRFSVNFQKAAKSFSLKISDSQLGDAAMYFCAYRSERYSTLTFGKGTMLLVSP
# V domain 2: SQTIHQWPATLVQPVGSPLSLECTVEGTSNPNLYWYRQAAGRGLQLLFYSVGIGQISSEVPQNLSASRPQDRQFILSSKKLLLSDSGFYLCAWSVPYLAGGKRPDTQYFGPGTRLTVLE
# How the values were obtained:
# [1] = biological target: MYO3A/MYO3B peptide (…) on peptide-pulsed T2 cells, HLA-A*02:01 (human); test: cell-based or functional assay
# [2] = biological target: MALT1 peptide (…) on peptide-pulsed T2 cells, HLA-A*02:01 (human); test: cell-based or functional assay
binder,measurement,setting,value
B1,EC50 of cytotoxicity (AUC of growth of peptide-pulsed T2 cells over 72 h against peptide dose),[1],100 fold lower affinity than the target HA-2 peptide
same,EC50 of cytotoxicity (AUC of growth of peptide-pulsed T2 cells over 72 h against peptide dose),[2],100 fold lower affinity than the target HA-2 peptide
